Measurements: patent publication US20110251255

Biological target: recombinant cofilin (His-tagged fusion protein of human cofilin), P23528
Sequence (P23528 whole entry, the tested form may be a part): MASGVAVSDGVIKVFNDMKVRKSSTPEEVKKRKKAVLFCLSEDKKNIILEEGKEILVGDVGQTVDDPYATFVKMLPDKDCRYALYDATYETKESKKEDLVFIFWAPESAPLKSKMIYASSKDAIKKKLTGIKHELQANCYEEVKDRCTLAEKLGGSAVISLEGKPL

B1: LIM kinase 1 (protein)
chain: MRLTLLCCTWREERMGEEGSELPVCASCGQRIYDGQYLQALNADWHADCFRCCDCSASLSHQYYEKDGQLFCKKDYWARYGESCHGCSEQITKGLVMVAGELKYHPECFICLTCGTFIGDGDTYTLVEHSKLYCGHCYYQTVVTPVIEQILPDSPGSHLPHTVTLVSIPASSHGKRGLSVSIDPPHGPPGCGTEHSHTVRVQGVDPGCMSPDVKNSIHVGDRILEINGTPIRNVPLDEIDLLIQETSRLLQLTLEHDPHDTLGHGLGPETSPLSSPAYTPSGEAGSSARQKPVLRSCSIDRSPGAGSLGSPASQRKDLGRSESLRVVCRPHRIFRPSDLIHGEVLGKGCFGQAIKVTHRETGEVMVMKELIRFDEETQRTFLKEVKVMRCLEHPNVLKFIGVLYKDKRLNFITEYIKGGTLRGIIKSMDSQYPWSQRVSFAKDIASGMAYLHSMNIIHRDLNSHNCLVRENKNVVVADFGLARLMVDEKTQPEGLRSLKKPDRKKRYTVVGNPYWMAPEMINGRSYDEKVDVFSFGIVLCEIIGRVNADPDYLPRTMDFGLNVRGFLDRYCPPNCPPSFFPITVRCCDLDPEKRPSFVKLEHWLETLRMHLAGHLPLGPQLEQLDRGFWETYRRGESGLPAHPEVPD
In the case of B1, the “in vitro phosphorylation of recombinant cofilin (immune complex kinase assay, autoradiography)” value is reported as “immunoprecipitated LIMK1 (FIG. 2, a and b) from PC3 cells was capable of phosphorylating recombinant cofilin (FIG. 2c)”.
